Reference: article PMC2195672

Target: HLA-A2 molecules immunoaffinity-purified from Jesthom cells, with added human β2-microglobulin (human (endogenous in Jesthom) | human)

HBV core 18-27, synthetic peptide gave a Kd of 40 nM.
